These results are taken from publication PMC2731243, “Structure and Novel Functional Mechanism of Drosophila SNF in Sex-Lethal Splicing”.

Series [1] deals with T1, SNF RRM1 (residues 1-104) (Drosophila melanogaster (Fruit fly), UniProt P43332).
T1 chain: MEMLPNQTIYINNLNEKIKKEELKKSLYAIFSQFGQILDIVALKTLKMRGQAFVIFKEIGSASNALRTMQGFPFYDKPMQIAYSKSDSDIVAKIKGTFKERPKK
Nature of the series: NMR 1H-15N HSQC comparison of full-length SNF with isolated RRMs, plus 15N relaxation; inferred in cis from full-length SNF versus isolated domains; separate RRM1 and RRM2 were not reported as mixed in trans.

Series [2] deals with T2, SNF full-length (NMR, SPR) (Drosophila melanogaster, UniProt P43332 1-216).
T2 sequence: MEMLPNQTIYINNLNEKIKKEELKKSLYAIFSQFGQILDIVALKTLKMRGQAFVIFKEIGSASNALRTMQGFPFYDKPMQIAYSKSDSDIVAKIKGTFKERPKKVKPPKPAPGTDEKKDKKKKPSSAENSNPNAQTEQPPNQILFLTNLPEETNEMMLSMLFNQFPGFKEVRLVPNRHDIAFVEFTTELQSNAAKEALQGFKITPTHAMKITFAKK
Nature of the series: SPR; n = 1.06; SPR 25 C: 10 mM HEPES pH 7.4, 150 mM NaCl, 3 mM EDTA, 0.05% P-20 (U1hpII); 50 mM PBS pH 7.0, 1 mM EDTA, 0.05% P-20 (poly(U)). EMSA: 4% native gel, protein ~1 uM, buffer by reference. The following applies: protein: recombinant; tags: pET-21d(+) vector; label: biotin.

For series [3], the target named is T3, SNF RRM1 (Drosophila melanogaster, UniProt P43332 1-104).
T3 sequence: T1 chain
Nature of the series: SPR; n = 1.20; SPR 25 C: 10 mM HEPES pH 7.4, 150 mM NaCl, 3 mM EDTA, 0.05% P-20 (U1hpII); 50 mM PBS pH 7.0, 1 mM EDTA, 0.05% P-20 (poly(U)). EMSA: 4% native gel, protein ~1 uM, buffer by reference. The following applies: protein: recombinant; tags: pET-21d(+) vector; label: biotin. Background: In SPR one partner is held on a chip, and binding of the other changes the refractive index at the surface.

In series [4] the target is T3, SNF RRM1. Nature of the series: SPR; SPR 25 C: 10 mM HEPES pH 7.4, 150 mM NaCl, 3 mM EDTA, 0.05% P-20 (U1hpII); 50 mM PBS pH 7.0, 1 mM EDTA, 0.05% P-20 (poly(U)). EMSA: 4% native gel, protein ~1 uM, buffer by reference. The note with it: protein: recombinant; tags: pET-21d(+) vector; label: biotin; hairpin.
Series [5] addresses T2, SNF full-length (NMR, SPR). The series can be described thus: NMR titration; protein:RNA 1:15; both RRMs perturbed; SPR 25 C: 10 mM HEPES pH 7.4, 150 mM NaCl, 3 mM EDTA, 0.05% P-20 (U1hpII); 50 mM PBS pH 7.0, 1 mM EDTA, 0.05% P-20 (poly(U)). EMSA: 4% native gel, protein ~1 uM, buffer by reference. The note with it: protein: recombinant; tags: pET-21d(+) vector.

B1: SNF RRM2 (residues 134-216) (protein)
chain: AQTEQPPNQILFLTNLPEETNEMMLSMLFNQFPGFKEVRLVPNRHDIAFVEFTTELQSNAAKEALQGFKITPTHAMKITFAKK
Consider B1, for which the binding result in series [1] is “no binding”.

B2: 2U-run poly(U) RNA (SPR) (ssRNA)
RNA: CCCCUCCCCUUUUUUUUUAUUUUUUUU
modifications: 5' biotin
By Kd is commonly meant the equilibrium constant for the complex coming apart. On to B2, for which the dissociation constant Kd is about 300 nM in series [2] and about 6 µM with SNF RRM1 [3].

B3: U1hpII (SPR) (structured_RNA)
RNA: GGCUUGGCCAUUGCACCUCGGCUGAGUU
modifications: 5' biotin
For B3, the equilibrium dissociation constant (Kd) with SNF RRM1 [4] is about 4.4 nM.

B4: 2U-run (NMR) (ssRNA)
RNA: UUUUUUUUAUUUUUUUUU
As to B4, the binding result in series [5] is recorded as “binds”.
